Article PMC5516924 (Biochemistry, 2016)
Substitutions are numbered along the chain they refer to. In names and notes the source's numbering stands.

B1: yGsy2-R589A/R592A (enzyme, Saccharomyces cerevisiae)
chain: MSRDLQNHLLFETATEVANRVGGIYSVLKSKAPITVAQYKDHYHLIGPLNKATYQNEVDILDWKKPEAFSDEMRPVQHALQTMESRGVHFVYGRWLIEGAPKVILFDLDSVRGYSNEWKGDLWSLVGIPSPENDFETNDAILLGYTVAWFLGEVAHLDSQHAIVAHFHEWLAGVALPLCRKRRIDVVTIFTTHATLLGRYLCASGSFDFYNCLESVDVDHEAGRFGIYHRYCIERAAAHSADVFTTVSQITAFEAEHLLKRKPDGILPNGLNVIKFQAFHEFQNLHALKKEKINDFVRGHFHGCFDFDLDNTLYFFIAGRYEYKNKGADMFIEALARLNYRLKVSGSKKTVVAFIVMPAKNNSFTVEALKGQAEVRALENTVHEVTTSIGKRIFDHAIRYPHNGLTTELPTDLGELLKSSDKVMLKRRILALRRPEGQLPPIVTHNMVDDANDLILNKIRQVQLFNSPSDRVKMIFHPEFLNANNPILGLDYDEFVRGCHLGVFPSYYEPWGYTPAECTVMGVPSITTNVSGFGAYMEDLIETNQAKDYGIYIVDRRFKAPDESVEQLVDYMEEFVKKTRRQRINQRNATEALSDLLDWKRMGLEYVKARQLALRRGYPDQFRELVGEELNDSNMDALAGGKKLKVARPLSVPGSPRDLRSNSTVYMTPGDLGTLQEVNNADDYFSLGVNPAADDDDDGPYADDS
B2: yGsy2-R581A/R592A (enzyme, Saccharomyces cerevisiae)
chain: B1 chain with R581A, A589R
B3: yGsy2-R581C/R592C (enzyme, Saccharomyces cerevisiae)
chain: B1 chain with R581C, A589R, A592C

Legend:
crystal structure = molecular target: the molecule itself; test: crystal structure
SEC = molecular target: the molecule itself; test: SEC

Row | Protein | stoichiometry N (crystal structure) | stoichiometry N (SEC)
1 | B1 | 4 | –
2 | B2 | – | 4
3 | B3 | – | 4
